Substitutions are numbered along the chain they refer to. Values belong to the binder of their own block, whether it stands above or below them.
Assays:
[1] = target: histones; assay: AtheNA Multi-Lyte ANA, Ab at 50 ug/ml
[2] = target: histones; assay: AtheNA Multi-Lyte ANA, Ab at 25 ug/ml
[3] = target: histones; assay: AtheNA Multi-Lyte ANA, Ab at 12.5 ug/ml
[4] = target: histones; assay: AtheNA Multi-Lyte ANA, Ab at 6.25 ug/ml
[5] = target: histones; assay: AtheNA Multi-Lyte ANA, Ab at 7.075 ug/ml
[6] = target: histones; assay: AtheNA Multi-Lyte ANA, Ab at 3.538 ug/ml
[7] = target: histones; assay: AtheNA Multi-Lyte ANA, Ab at 28.3 ug/ml
[8] = target: sclerosis autoantigen (Scl-70) (UniProt P11387); assay: AtheNA Multi-Lyte ANA, Ab at 50 ug/ml
Chain of sclerosis autoantigen (Scl-70) (P11387 2-765 limits assumed): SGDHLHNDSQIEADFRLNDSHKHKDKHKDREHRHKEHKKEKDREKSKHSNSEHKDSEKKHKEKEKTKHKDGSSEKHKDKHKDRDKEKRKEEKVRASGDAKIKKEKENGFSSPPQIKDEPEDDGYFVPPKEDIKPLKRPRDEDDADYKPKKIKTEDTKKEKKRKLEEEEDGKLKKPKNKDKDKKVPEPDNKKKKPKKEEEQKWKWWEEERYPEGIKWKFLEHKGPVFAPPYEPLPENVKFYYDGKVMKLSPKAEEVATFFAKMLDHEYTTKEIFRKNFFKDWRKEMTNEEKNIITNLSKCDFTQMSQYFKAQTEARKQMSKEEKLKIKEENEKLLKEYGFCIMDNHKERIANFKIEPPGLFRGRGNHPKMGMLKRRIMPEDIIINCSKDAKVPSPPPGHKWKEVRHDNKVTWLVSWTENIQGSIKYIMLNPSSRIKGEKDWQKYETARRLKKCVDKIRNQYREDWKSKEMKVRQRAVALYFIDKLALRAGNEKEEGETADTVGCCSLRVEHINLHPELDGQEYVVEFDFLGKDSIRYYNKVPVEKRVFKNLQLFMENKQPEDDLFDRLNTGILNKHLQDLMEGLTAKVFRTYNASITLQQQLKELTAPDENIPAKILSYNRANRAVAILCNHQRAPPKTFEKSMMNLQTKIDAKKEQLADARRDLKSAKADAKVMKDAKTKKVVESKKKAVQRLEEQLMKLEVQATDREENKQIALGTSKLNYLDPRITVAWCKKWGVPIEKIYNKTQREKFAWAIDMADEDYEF

[9] = target: sclerosis autoantigen (Scl-70) (UniProt P11387); assay: AtheNA Multi-Lyte ANA, Ab at 12.5 ug/ml
[10] = target: sclerosis autoantigen (Scl-70) (UniProt P11387); assay: AtheNA Multi-Lyte ANA, Ab at 6.25 ug/ml
[11] = target: histones; assay: AtheNA Multi-Lyte ANA, Ab at 4.175 ug/ml
[12] = target: histones; assay: AtheNA Multi-Lyte ANA, Ab at 2.088 ug/ml
[13] = target: histones; assay: AtheNA Multi-Lyte ANA, Ab at 16.7 ug/ml
[14] = target: histones; assay: AtheNA Multi-Lyte ANA, Ab at 8.35 ug/ml

B1: Ab7957/293i (antibody, IgG1, V domains shown)
VH: LVESGGGVVPPGKSLRLSCAASGFTFSLYGIHWVRQAPGKGLEWVAVISYDGNTKYYTDSVKGRFTISRDNAKNTIYLQMNSLRLDDTAVYYCAKGAANSATFDFWGRGTMVTVSS
VL: MTQSPDSLTLSLGERATINCRSSRTVLYRSNNKNYLAWYQHKPGQPPKLLMSWASTRETGVPDRFSGSGSGTHFTLTITSLQPEDVAVYYCQQYYSPPWTFGQGTKVEIR
AtheNA signal [1]: 15
AtheNA signal [2]: 9
AtheNA signal [3]: 8
AtheNA signal [4]: 6

B3: Ab7955 (antibody, V domains shown)
VH: LVESGGGVVRPGRSLRLSCVASGFTFNAYGMHWVRQGPGKGLEWLAVISYEGKTVYYADSVKDRFTISRDNSRNTVSLHLNNLRGEDTAVYYCAKGSASAAVLQHWGQGTLVSVTS
VL: MTQSPGSLAVSLGSRATINCKSSRSLLYRSNNKNYLAWYQQKPGQSPRLLIYWASSRESGVPDRFSGGGSGTSFTLTISSLQAEDVAVYYCQQYFNPPWTFGQGTKVEIK
AtheNA signal [1]: 90
AtheNA signal [8]: 8
AtheNA signal [3]: 60
AtheNA signal [9]: 3
AtheNA signal [4]: 44
AtheNA signal [10]: 2

B4: Ab7960/293i (antibody, IgG1, V domains shown)
VH: LVESGGGVVQPGKSLRLSCVASGFSFSTYGMHWVRQAPGKGLEWVAVMSFDGKTKYYADSVKGRFTISRDNPKNTLYLQMNSLRSEDTAVYYCAKGGAAAAVFDSWGPGILLTVSS
VL: MTQSPNSLAVSLGGRATINCKASQSILYRSNNKNYLAWYQHKAGQPPKLLIYWASTRESGVPERFSGSGSRTDFTLTINGLQAEDVAVYYCQQYYNPPWTFGQGTKVEIK
AtheNA signal [1]: 31
AtheNA signal [3]: 26
AtheNA signal [4]: 18

B5: Ab7961/293i (antibody, IgG1, V domains shown)
VH: B4 VH with S25T, T28S, P108Q
VL: B4 VL with A22T, A43S, E63D, N79S
AtheNA signal [1]: 77
AtheNA signal [2]: 77
AtheNA signal [3]: 69
AtheNA signal [4]: 62

Results, then the binder that gave them:

AtheNA signal [5]: 115
AtheNA signal [6]: 86
AtheNA signal [7]: 131
B2: Ab7970 (antibody, IgG1, V domains shown)
VH: LVESGGGVVQPGRSLRLSCAASGLTFSFYNFHWVRQTPGKGLEWVAGISYDATRTNYAGSVTGRFTISRDNSKKMLYLQMSSLGPQDTAVYHCARDRSDGQLHKVAFDSWGQGALVTVSS
VL: B1 VL

AtheNA signal [11]: 114
AtheNA signal [12]: 93
AtheNA signal [13]: 100
AtheNA signal [14]: 114
B6: Ab7979 (antibody, IgG1, V domains shown)
VH: B4 VH with S25T, P108Q
VL: B4 VL with A22T, A43P, G60R, E63D, N79S

AtheNA signal [1]: 4
AtheNA signal [3]: 1
AtheNA signal [4]: 3
B7: Ab7962/293i (antibody, V domains shown)
VH: LVESGGGLVQPGGSLRLSCAASGFTFSSYEMNWVRQAPGKGLEWVSYISSSGSTIYYADSVKGRFTISRDNAKNSLYLQMNSLRAEDTAVYYCARVEQLAPSPYMDVWGKGTTVTVSS
VL: MTQSLDSLTVSLGERATINCKSSQSLLYTSNNKNYLAWYQQKSGQPPKLLIYWASIRDSGVPDRFSGSGSATDFTLTINNLQAEDVAVYFCQQYYKTPLTFGGGTKVEVR

From patent US20190315842A1
